Values quoted from earlier work in article PMC12336664.

Molecular target: FXa (Homo sapiens) (UniProt P00742)
UniProt P00742, sequence (P00742 41-179, chain 1 of 2): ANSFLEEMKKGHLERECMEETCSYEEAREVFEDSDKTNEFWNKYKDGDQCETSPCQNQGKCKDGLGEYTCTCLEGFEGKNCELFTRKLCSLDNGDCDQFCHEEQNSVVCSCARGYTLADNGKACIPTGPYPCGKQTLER
UniProt P00742, sequence (P00742 235-488, chain 2 of 2): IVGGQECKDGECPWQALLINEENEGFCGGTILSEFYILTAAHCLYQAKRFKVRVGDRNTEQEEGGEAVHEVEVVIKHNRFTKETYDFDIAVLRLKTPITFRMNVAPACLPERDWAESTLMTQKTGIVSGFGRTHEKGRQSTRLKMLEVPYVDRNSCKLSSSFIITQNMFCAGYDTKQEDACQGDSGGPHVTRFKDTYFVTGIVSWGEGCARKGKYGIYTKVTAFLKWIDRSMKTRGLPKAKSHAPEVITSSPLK

Substance: TFPIα (from UniProt P10646)
- Kd: 0.02 nM
